{
  "source": "the nanobody polyreactivity screen of Harvey et al. (2022)",
  "data": [
    {"assay": "yeast display, Sf9 membrane polyspecificity reagent, FACS + sequencing; frameworks hold sequencing errors", "in_short": "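Synthetic nanobody libraries on Saccharomyces cerevisiae BJ5465 were galactose-induced for 36–48 hours, stained 1 hour at 4 °C with 10% biotinylated, detergent-solubilized Sf9 membrane reagent and enriched on streptavidin microbeads. FACS then separated cells into low and high (top ~1%) gates by anti-HA (expression) and streptavidin (reagent binding) fluorescence. Genes were colony-PCR amplified, MiSeq 2 × 250 sequenced and CDR-length filtered. A clone's polyreactivity label is that of its gate of origin.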", "values": [
      {"sequence": "QVQLVESGGGLVQAGGSLRLSCAASGRTFVFNAMGWYRQAPGKERELVAAITKNGGSTYYADSVKGRFTISRDNAKNTVYLQMNSLKPEDTAVYYCAVRRGYPFYYWGQGTQVTVSS", "polyreactivity (PSR sort gate)": "low polyreactivity"},
      {"sequence": "QVQLVESGGGLVQAGGSLRLSCAASGRTFVFYAMGWYIQAPGKERELVASISDGDRTNYADSVKGRFTISRDNAKNTVYLQMNSLKPEDTAVYYCAADREFWWEVVYTYEYYYWGQGTQVTVSS", "polyreactivity (PSR sort gate)": "low polyreactivity"},
      {"sequence": "QVQLVESGGGLVQAGGSLRLSCAASGRTFVFYAMGWYRQAPGKERELVAAITSSGRTKYADSVKGRFTISRDNAKNTVYLQMNSLKPEDTAVYYCAVLRWPGLDYYWGQGTQVTVSS", "polyreactivity (PSR sort gate)": "high polyreactivity"},
      {"sequence": "QVQLVESGGGLVQAGGSLRLSCAASGRTFVGNAMGWYRQAPGKEREFVAAITSRTGSTYYADSVKGRFTISRDNAKYTVYLQMNSLKPEDTAVYYCATPYYQNVYSRKAYNYWGQGTQVTVSS", "polyreactivity (PSR sort gate)": "high polyreactivity"},
      {"sequence": "QVQLVESGGGLVQAGGSLRLSCAASGRTFVGNAMGWYRQAPGKERELVADITWSGDITYYADSVKGRFTISRDNAKNTVYLQKNSLKPEDTAVYYCAADYHRRRTDYDYWGQGTQVTVSS", "polyreactivity (PSR sort gate)": "low polyreactivity"},
      {"sequence": "QVQLVESGGGLVQAGGSLRLSCAASGRTFVGYAMGWYRQAPGKERELVAAISGSGVRTYYADSVKGRFTISRDNAKNTVYLQMNSLKPEDTAVYYCAVRQGWYNFRYDYWGQGTQVTVSS", "polyreactivity (PSR sort gate)": "high polyreactivity"},
      {"sequence": "QVQLVESGGGLVQAGGSLRLSCAASGRTFVHNAMGWYRQAPGKERELVAVITSGARTTYADSVKGRFTISRDNAKNTVYLQMNSLKPEDTAVYYCAAGTFSVIFSYKYRHYYYWGQGTQVTVSS", "polyreactivity (PSR sort gate)": "low polyreactivity"},
      {"sequence": "QVQLVESGGGLVQAGGSLRLSCAASGRTFVINSMGWYRQAPGKERELVAAITWGGGSTYYADSVKGRFTISRDNAKNTVYLQMNSLKPEDTAVYYCATSYSVQYGGSGYYWGQGTQVTVSS", "polyreactivity (PSR sort gate)": "low polyreactivity"},
      {"sequence": "QVQLVESGGGLVQAGGSLRLSCAASGRTFVKYAMGWYRQAPGKERELVAAISSRGSSTYYADSVKGRFTISRDNAKNTVYLQMNSLKPEETAVYYCNAVYYYNPGYDYWGQGTQVTVSS", "polyreactivity (PSR sort gate)": "high polyreactivity"},
      {"sequence": "QVQLVESGGGLVQAGGSLRLSCAASGRTFVNNAMGWYRQAPGKERELVAAISQSGSRTYYADSVKRRFTISRDNAKNSVYLQMNSLNTEDTAVYDCAARGARSSTSDDWGQGTQVTVSS", "polyreactivity (PSR sort gate)": "high polyreactivity"},
      {"sequence": "QVQLVESGGGLVQAGGSLRLSCAASGRTFVNYTMGWYRQAPGKERELVAAIRYRDGSTYYADSVKGRFTISRDNAKNTVYLQMNSLKPEDTAVYYCDTRITQVGDYIYDYWGQGTQGTVSS", "polyreactivity (PSR sort gate)": "low polyreactivity"},
      {"sequence": "QVQLVESGGGLVQAGGSLRLSCAASGRTFVPYAMGWYRQAPGKEREFVAAISSRVGSTYYADSVKGRFTISRDNAKNTVYLQMNSLKPEDTAVYYCNAPFKPAGFYSAWKYDYWGQGTQVTVSS", "polyreactivity (PSR sort gate)": "low polyreactivity"},
      {"sequence": "QVQLVESGGGLVQAGGSLRLSCAASGRTFVPYAMGWYRQAPGKERELVAAISSSGGSTYYADSVKGRFTISRDNAKNTVYLQMNSLKPDDTAVYYCAAKSRKGGEYWGQGTQVTVSS", "polyreactivity (PSR sort gate)": "high polyreactivity"},
      {"sequence": "QVQLVESGGGLVQAGGSLRLSCAASGRTFVPYAMGWYRQAPGKERELVAAISWSSVSTYYADSVKGRFTISRDNAKNTVYLQMNSLKPEDTAVYYCAAEYYTRVAEYYYWGQGTQVTVSS", "polyreactivity (PSR sort gate)": "high polyreactivity"},
      {"sequence": "QVQLVESGGGLVQAGGSLRLSCAASGRTFVQYVMGWYRQAPGKERELVARISSGGSTFYADSVKGRFTISRDNAKNTVYLQMNSLKPEDTAVYYCAAQWTRYRRRPMDYWGQGTQVTVSS", "polyreactivity (PSR sort gate)": "high polyreactivity"},
      {"sequence": "QVQLVESGGGLVQAGGSLRLSCAASGRTFVRYAMGWYRQAPGKERELVAAISRTGGTTYYADSVKGRFTISRDNAKNTVYLQMNSLKPEDTAVYYCNADPFYKYGYWGQGTQVTVSS", "polyreactivity (PSR sort gate)": "high polyreactivity"},
      {"sequence": "QVQLVESGGGLVQAGGSLRLSCAASGRTFVRYAMGWYRQAPGKERELVAAISWSGGSTYYADSVKGRFTISRDNAKNTVYLQMNSLKPEDTAVYYCAADDETPSSHEEDYWGQGTQVTVSS", "polyreactivity (PSR sort gate)": "high polyreactivity"},
      {"sequence": "QVQLVESGGGLVQAGGSLRLSCAASGRTFVRYAMGWYRQAPGKERELVAAITRRGGSTYYADSVKGRFTISRDNAKNTVYLQMNSLKPEDTAVYYCNKAVGVTGFDYWGQGTQVTVSS", "polyreactivity (PSR sort gate)": "high polyreactivity"},
      {"sequence": "QVQLVESGGGLVQAGGSLRLSCAASGRTFVRYAMGWYSQAPGKERELVAAISGIATRTYYADSVKGRFTISRDNAKNTVYLQMNSLKPEDTAVYYCNALYAKYDYWGQGTQVTVSS", "polyreactivity (PSR sort gate)": "high polyreactivity"},
      {"sequence": "QVQLVESGGGLVQAGGSLRLSCAASGRTFVSNAMGWYRQAPGKERELVAAITQSGGSTYADSVKGRFTISRDNAKNTVYLQLNSLKPEDTAVYYCNSEHAFVGTYYERHDYWGQGTQVTVSS", "polyreactivity (PSR sort gate)": "low polyreactivity"},
      {"sequence": "QVQLVESGGGLVQAGGSLRLSCAASGRTFVSNAMGWYRQAPGKERELVAGINWTDDSTYYADSVKGRFTISRDNAKNTVYLQINSLKPEDTAVYYCAADSLEFAWPRFDYWGQGTQVTVSS", "polyreactivity (PSR sort gate)": "low polyreactivity"},
      {"sequence": "QVQLVESGGGLVQAGGSLRLSCAASGRTFVSNDMGWYRQAPGKERELVATISSGASTYYADSVKGRFTISRDNAKNTVYLQMNSLKPEDTAVYYCAAEVLVFGGGYDYWGQGTQVTVSS", "polyreactivity (PSR sort gate)": "low polyreactivity"},
      {"sequence": "QVQLVESGGGLVQAGGSLRLSCAASGRTFVSYAMGWYRQAPGKERELVAAISGSGGSTYYADSVKGRFTISPDNAKKTGYLQMNSLKPEDTAVYYCHKGRPRKVNSEGFGYWGQGTQVTVSS", "polyreactivity (PSR sort gate)": "high polyreactivity"},
      {"sequence": "QVQLVESGGGLVQAGGSLRLSCAASGRTFVTNAMGWYRQAPGKERELVAAISGTGGSTYYADSVKGRFTISRDNAKNTVYLQMNSLKPEDTAVYYCNKDYHVRYYYWGQGTLVTVSS", "polyreactivity (PSR sort gate)": "low polyreactivity"},
      {"sequence": "QVQLVESGGGLVQAGGSLRLSCAASGRTFVTNAMGWYRQAPGKERELVAAISSSGGSTYYADSVKGRFTISRDKAKNTVYLQMNSLKPEDTAVYYCAVGGQTKGQYDYWGQGTQVTVSS", "polyreactivity (PSR sort gate)": "low polyreactivity"},
      {"sequence": "QVQLVESGGGLVQAGGSLRLSCAASGRTFVTYAMGWYRQAPGKEREFVAAISRNGGSTYYADSVKGRFTISRDNAKNTVYLQMNSLKPEDTAVYYCAAYAYIFLDWGGYPYYLYEYDYWGQGTQVTVSS", "polyreactivity (PSR sort gate)": "low polyreactivity"},
      {"sequence": "QVQLVESGGGLVQAGGSLRLSCAASGRTFVTYAMGWYRQAPGKEREFVAAITWSTGTSTYYADSVKGRFTISRDNAKNTVYLQMNSLKPEDTAVYYCAVDIWWPTWYYIYWGQGTQVTVSS", "polyreactivity (PSR sort gate)": "low polyreactivity"},
      {"sequence": "QVQLVESGGGLVQAGGSLRLSCAASGRTFVTYAMGWYRQAPGKEREFVASISSDSGNTYYADSVKGRFTISRDNAKNTLYFQMNSLKPEDTAVYYCARRKVRYWSYPAAHYYWGQGTQVTVSS", "polyreactivity (PSR sort gate)": "low polyreactivity"},
      {"sequence": "QVQLVESGGGLVQAGGSLRLSCAASGRTFVVNAMGWYRQAPGKEREFVAAISYRGDSTYYADSVKGRFTISRDNAKNTVYLQMNSLKPEDTAVYYCAAQYRYGRYTRDYWGQGTQVTVSS", "polyreactivity (PSR sort gate)": "high polyreactivity"},
      {"sequence": "QVQLVESGGGLVQAGGSLRLSCAASGRTFVVNAMGWYRQATGKERELVAAITRRGGITYYADSVKGRFTISRDTAKNTVYFQMNSLKPEDTAVLYCAADRSYYPDTRSTYGYNYWGQGTQVTVSS", "polyreactivity (PSR sort gate)": "low polyreactivity"},
      {"sequence": "QVQLVESGGGLVQAGGSLRLSCAASGRTFVVNVMGWYRQAPGKERELVAAISSVVSTNYADSVKGRFTISRDNAKNTVYLQMNCLKPEDTAVYYCAADVRGAYSTYLYTTTIRYDYWGQGTQVTVSS", "polyreactivity (PSR sort gate)": "low polyreactivity"},
      {"sequence": "QVQLVESGGGLVQAGGSLRLSCAASGRTFVVYGMGWYRQAPGKERELVATITSGGSTDYADSVKGRFTIARDNAKNTVYLQMNSLKPEDTAVYYCAKETSYTNDDDYWGQGTQVTVSS", "polyreactivity (PSR sort gate)": "low polyreactivity"},
      {"sequence": "QVQLVESGGGLVQAGGSLRLSCAASGRTFVWNAIGWYRQAPGKERELVDAITSGGSTNYADSVKGRFTISRDNAKNTVYLQMNSLKPEDTAVYYCAADWHYSPRMDYWGQGTLVTVSS", "polyreactivity (PSR sort gate)": "low polyreactivity"},
      {"sequence": "QVQLVESGGGLVQAGGSLRLSCAASGRTFVYNAMGWYRQAPGKERELVAAINWRGGSTYYADSVKGRFTISRDNAKNTVSLQMNSLKPEDTAVYYCAPRNVYVWYDYWGQGTQVTVSS", "polyreactivity (PSR sort gate)": "low polyreactivity"},
      {"sequence": "QVQLVESGGGLVQAGGSLRLSCAASGRTFVYNAMGWYRQAPGKERELVAAITRNGGSTYYADSVKGRFTISRDNAKNTVYLQMNSLKPEDTAVYYCNRDVRYVGRSGFDYWGQGTQVTVSS", "polyreactivity (PSR sort gate)": "high polyreactivity"},
      {"sequence": "QVQLVESGGGLVQAGGSLRLSCAASGRTFVYNAMGWYRQAPGKERELVAAITSGGSTYYADSVKGRFTMSRDNAKNTVYLQMNSLKPEDTAVYYCDGYKRGYYWGQGTQVTVSS", "polyreactivity (PSR sort gate)": "high polyreactivity"},
      {"sequence": "QVQLVESGGGLVQAGGSLRLSCAASGRTFVYYAMGWYRQAPGKERELVAAITSGGSTNYADSVKGRFTISRDNAKNTVYLQMNSLKPEDTAVYYCNAYGVSWFYYTWKYDYWGQGTQVTVSS", "polyreactivity (PSR sort gate)": "low polyreactivity"},
      {"sequence": "QVQLVESGGGLVQAGGSLRLSCAASGRTFVYYAMGWYRQAPGKERELVATISTTGGRTYYADSVKGRFTISRDNAKNTVYLQMNSLKPEDTAVYYCAADLYGAYGYWGQGTQVTVSS", "polyreactivity (PSR sort gate)": "low polyreactivity"},
      {"sequence": "QVQLVESGGGLVQAGGSLRLSCAASGRTFVYYAMGWYRQAPGKERELVATITRGGRTNYADSVKGRFTISRDNAKNTVYLQMNSLKPEDTAVYYCNARYSWWRSRVGSSHRPDGYWGQGTQVTVSS", "polyreactivity (PSR sort gate)": "high polyreactivity"},
      {"sequence": "QVQLVESGGGLVQAGGSLRLSCAASGRTFWANAMGWYRQAPGKERELVAAITIDGRTSYADSVKGRFTISRDNAKNTVYLQMNSLKPEDTAVYYCATEPFYTYGYYTYPYWYDYWGQGTQVTVSS", "polyreactivity (PSR sort gate)": "low polyreactivity"},
      {"sequence": "QVQLVESGGGLVQAGGSLRLSCAASGRTFWDYAMGWYIQAPGKEREFVAAINTSGGRTYYADSVKGRFTISRDNAKNTVYLQMNSLKPEDTAVYYCAARTRDRAYDSWGQGTQVTVSS", "polyreactivity (PSR sort gate)": "high polyreactivity"}
    ]}
  ]
}
